From the RNAGym collection of RNA variant scans (doi:10.1073/pnas.2313332121) come the findings set out here.

B1: TPR t1 (parent)
chain: GACCAAUCUGCCCUCAGAGCUCGAGAACAUCUUCGGAUGCAGAGGAGGCAGGCUUCGGUGGCGCGAUAGCGCCAACGUCCUCAACCUCCAAUGCAUCCCACCACAUGAUGAUGCCUGAAGAGCCUUGGUUUUUUG

The data set covers variants of B1. Briefly: polymerase ribozyme fitness, log enrichment relative to wild type (log ratio); higher = more active; in vitro selection for triplet polymerase activity. The essentials: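 A single round of triplicate in vitro selection, including frozen incubation at −7 °C, was applied to PCR-built, transcribed mutant libraries of each subunit of a heterodimeric triplet polymerase ribozyme. Illumina sequencing of input and output libraries retained genotypes with ≥10 input reads and ≥1 read per output. Fitness is the base-2 logarithm of genotype enrichment divided by wild-type enrichment, from inverse-variance-weighted replicate averages.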
For GACCAAUCUGCCCUCAGAGCUCGAGAACAUCUUCGGAUGCAGAGGAGACAGGCUUCGGUGGCGCGAUAGCGCCAACGUCCUCAACCUCCAAUGCAUCCCACCACAUGAUGAUGCCUGAAGAGCCUUGGUUUUUUG [G48A], the “polymerase ribozyme fitness (log ratio)” value was -0.658.

Consider GACCAAUCUGCCCUCAGAGCUCGAGAACAUCUUCGGAUGCAGAGGAGACAGGCUUCGGUGGCGCGUUAGCGCCAACGGCCUCAACCUCCAAUGCAUCCCACCACAUGAUGAUGCCUGAAGAGCCUUGGUUUUUUG [G48A A66U U78G], for which the “polymerase ribozyme fitness (log ratio)” value is -1.56.

As for GACCAAUCUGCCCUCAGAGCUCGAGAACAUCUUCGGAUGCAGAGGAGACAGGCUUCGGUUGCGCGAUAGCGCCAACGUCCUCAACCUCCAAUGCAUCCCACCACAUGAUGAUGCCUGAAGAGCCUUGGUUUUUUG [G48A G60U], the “polymerase ribozyme fitness (log ratio)” value is -0.531.

As for GACCAAUCUGCCCUCAGAGCUCGAGAACAUCUUCGGAUGCAGAGGAGACAGGCUUCGGUUGCGCGAUAGCGCCAACGUCCUCAACCUCCAAUGCAUCCCACCAAAUGAUGAUGCCUGAAGAGCCUUGGUUUUUUG [G48A G60U C104A], the “polymerase ribozyme fitness (log ratio)” value was -1.82.

In the case of GACCAAUCUGCCCUCAGAGCUCGAGAACAUCUUCGGAUGCAGAGGAGAGAGGCUUUGGUGGCGCGAUAGCGCCAACGUCCUCAACCUCCAAUGCAUCCCACCACAUGAUGAUGCCUGAAGAGCCUUGGUUUUUUG [G48A C49G C56U], the “polymerase ribozyme fitness (log ratio)” value is -0.3.

For the variant GACCAAUCUGCCCUCAGAGCUCGAGAACAUCUUCGGAUGCAGAGGAUGCAGGCUUCGGUGGCGCGAUAGCGCCAACGUCCUCAACCUCCAAGGCAUCCCACCACAUGAUGAUGCCUCAAGAGCCUUGGUUUUUUG [G47U U92G G117C], the “polymerase ribozyme fitness (log ratio)” value was -7.27.

Regarding GACCAAUCUGCCCUCAGAGCUCGAGAACAUCUUCGGAUGCAGAGGAGACAGGCUUCGGUGGCGCGAUAGCGGCAACGUCCUCAACCUCCAAUGCAUCCCACCUCAUGAUGAUGCCUGAGGAGCCUUGGUUUUUUG [G48A C72G A103U A119G], the “polymerase ribozyme fitness (log ratio)” value was -3.79.

Consider GACCAAUCUGCCCUCAGAGCUCGAGAACAUCUUCGGAUGCAGAGGAGACAGUCUCCGGUGGCGCGAUAGCGCCAACGUCCUCAACCUCCAAUGCAUCCCACCACAUGAUGAUGCCUGAAGAGCCAUGGUUUUUUG [G48A G52U U55C U125A], for which the “polymerase ribozyme fitness (log ratio)” value is -2.1.

As for GACCAAUCUGCCCUCAGAGCUCGAGAACAUCUUCGGAUGCAGAGGAGACAGGCUUUGGUGGCGCGAUAGAGCCAACGUCCUCAACCUCCAAUGCAUCCCACCACAUGAUGAUGCCUGAAGAGCCUUGGUUUUUUG [G48A C56U C70A], the “polymerase ribozyme fitness (log ratio)” value is -4.74.

For the variant GACCAAUCUGCCCUCAGAGCUCGAGAACAUCUUCGGAUGCAGAGGAGACAGGCUUCGGUGGCGCGAUAGCGCCAACAUCCUCAACCUUCAAUGCAUCCCACCACAUGAUGAUGCCUGAAGAGCCUUGGUUUUUUG [G48A G77A C88U], the “polymerase ribozyme fitness (log ratio)” value is -0.845.

Take GACCAAUCUGCCCUCAGAGCUCGAGAACAUCUUCGGAUGCAGAGGAGACAGGCUUCGGUGGCGCGAUAGCGCCAACGUCCUCAAUCUCCAAUGCAUCCCACCACAUGAUGAUGCCUGAAGAGCCUUGGUUUUUUG [G48A C85U]: the “polymerase ribozyme fitness (log ratio)” value was -0.302.

For the variant GACCAAUCUGCCCUCAGAGCUCGAGAACAUCUUCGGAUGCAGAGGAGACAGGCUUCGGUGGAGCGAUAGCGCUAACGUCCUCAACCUCCAAUGCAUCCCACCACAUGAUGAUGCCUGAAGAGCCUUGGUUUUUUG [G48A C62A C73U], the “polymerase ribozyme fitness (log ratio)” value was -3.55.

Regarding GACCAAUCUGCCCUCAGAGCUCGAGAACAUCUUCGGAUGCAGAGGAGACAGGCUUCGGUGGCCCGAUAGCGCCAACGUCCUGAACCUCCAAUGCAUCCCACCACAUGAUGAUUCCUGAAGAGCCUUGGUUUAUUG [G48A G63C C82G G113U U132A], the “polymerase ribozyme fitness (log ratio)” value was -3.71.

As for GACCAAUCUGCCCUCAGAGCUCGAGAACAUCUUCGGAUGCAGAGGAGACAGGCUUCGGUGGCGCGAUAGCGCCAACGUCCUCAACCUCAAAUGCAUCCCACCACAUGAUGAUGCCUGAAGAGCCUUGGUUUUUUG [G48A C89A], the “polymerase ribozyme fitness (log ratio)” value is -1.71.

Turning to GACCAAUCUGCCCUCAGAGCUCGAGAACAUCUUCGGAUGCAGAGGAGACAGGCUUCGGUGGCGCGAUAGCGCCAACGUCCUCAACCUCCAAUGCAUCCCACCACAUGAUGAUGCCUGAAGAGGCUUGGUUUUUUG [G48A C123G], the “polymerase ribozyme fitness (log ratio)” value stood at 0.439.

For GACCAAUCUGCCCUCAGAGCUCGAGAACAUCUUCGGAUGCAGAGGAUGCAGGCUUCGGUGGCGCGAUAGCGCCAACGUCCUCAACCUCCAAUGCAUCCCACCACAUGAUGAUGCCUGAAAAGCCUUGGUUUUUUG [G47U G120A], the “polymerase ribozyme fitness (log ratio)” value was -0.734.

Consider GACCAAUCUGCCCUCAGAGCUCGAGAACAUCUUCGGAUGCAGAGGAGACAGACUUCGGUAGCGCGAUAGCGCUAACGUCCUGAACCUUCAAUGCAUCCCACGACAUGAUGAUGCCUGAAGAGCCUUGGUUUUUUG [G48A G52A G60A C73U C82G C88U C102G], for which the “polymerase ribozyme fitness (log ratio)” value is -5.86.

Regarding GACCAAUCUGCCCUCAGAGCUCGAGAACAUCUUCGGAUGCAGAGGAGACAGGAUUCGGGGCCGCGAUAGCGCCAACGUCCUCAACCUCCAAUGCAUCCCACCACAUGAUGAUGCCUGAAGAGCCUUGGUUUUUUG [G48A C53A U59G G61C], the “polymerase ribozyme fitness (log ratio)” value was -0.194.

For the variant GACCAAUCUGCCCUCAGAGCUCGAGAACAUCUUCGGAUGCAGAGGAGACAGGAUUCGGGGCCGCGAUAGCGCCAACGUUCUCAACCUCCAAUGCAUCCCAACACAUGAUGAUGCCUGAAGAGCCUAGGUUUUUUG [G48A C53A U59G G61C C79U C101A U126A], the “polymerase ribozyme fitness (log ratio)” value was -3.84.

Regarding GACCAAUCUGCCCUCAGAGCUCGAGAACAUCUUCGGAUGCAGAGGAUGCAGGCUUCGGUGGCGCGAUAGCGCCAACGGCCUCAACCUCCAAUGCAUCCCACCACAUGAUGAUGCCUGAAGAGCCUUGGUUUUUUG [G47U U78G], the “polymerase ribozyme fitness (log ratio)” value is -1.6.

For the variant GACCAAUCUGCCCUCAGAGCUCGAGAACAUCUUCGGAUGCAGAGGAGACAGGCUUCGGUGGCGCGAUAGUGCCAACGUCCUCAACCUCCAAUGCAUCCCACCACAUGAUGAUGCAUGAAGAGCCUUGGUUUUUUG [G48A C70U C115A], the “polymerase ribozyme fitness (log ratio)” value was -1.87.
